Reference: patent publication US20240241135A1 (SENBOLL BIOTECHNOLOGY, published 2024)

Experiments:
[1] = molecular target: T1, recombinant human regenerating islet-derived protein 1α (REG1A) (human, UniProt P05451 23-166, limits assumed); experiment: sandwich ELISA; capture 12F12A10; REG1A 100.00 ng/mL
T1 construct: also called recombinant human REG1A; recombinant REG1A
T1 sequence (looked up): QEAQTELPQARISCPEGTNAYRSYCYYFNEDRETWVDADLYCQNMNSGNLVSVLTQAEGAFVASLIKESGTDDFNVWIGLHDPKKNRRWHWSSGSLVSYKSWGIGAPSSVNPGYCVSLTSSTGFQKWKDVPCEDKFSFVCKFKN
Procedure, shortened: (§1)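 In this sandwich ELISA, the capture monoclonal antibody was coated in PBS overnight at 4 °C, and blocking followed for 2 h at 37 °C. Recombinant human REG1A in basic diluent was incubated for 1 h at 37 °C, then a horseradish peroxidase-based detection antibody system and TMB substrate were applied for 15 min at 37 °C before the reaction was stopped with 0.2M sulfuric acid. The OD value is the dual-wavelength corrected absorbance. It equals the absorbance at 450 nm minus the absorbance at 620/630 nm.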

[2] = molecular target: T1, recombinant human regenerating …; experiment: sandwich ELISA; capture 21B11D2; REG1A 1.23 ng/mL
Procedure, shortened: as §1

[3] = molecular target: T1, recombinant human regenerating …; experiment: sandwich ELISA; capture 12F12A10; REG1A 11.11 ng/mL
Procedure, shortened: as §1

[4] = molecular target: T1, recombinant human regenerating …; experiment: sandwich ELISA; capture 11D11B11; REG1A 33.33 ng/mL
Procedure, shortened: as §1

[5] = molecular target: T1, recombinant human regenerating …; experiment: sandwich ELISA; capture 21B11D2; REG1A 33.33 ng/mL
Procedure, shortened: as §1

[6] = molecular target: T1, recombinant human regenerating …; experiment: sandwich ELISA; capture 11D11B11; REG1A 1.23 ng/mL
Procedure, shortened: as §1

[7] = molecular target: T1, recombinant human regenerating …; experiment: sandwich ELISA; capture 25F3C4; REG1A 11.11 ng/mL
Procedure, shortened: as §1

[8] = molecular target: T1, recombinant human regenerating …; experiment: sandwich ELISA; capture 25F3C4; REG1A 0 ng/mL (blank)
Procedure, shortened: as §1

[9] = molecular target: T1, recombinant human regenerating …; experiment: sandwich ELISA; capture 25F3C4; REG1A 100.00 ng/mL
Procedure, shortened: as §1

[10] = molecular target: T1, recombinant human regenerating …; experiment: sandwich ELISA; capture 4H8F1; REG1A 1.23 ng/mL
Procedure, shortened: as §1

[11] = molecular target: T1, recombinant human regenerating …; experiment: sandwich ELISA; capture 11D11B11; REG1A 11.11 ng/mL
Procedure, shortened: as §1

[12] = molecular target: T1, recombinant human regenerating …; experiment: sandwich ELISA; capture 12F12A10; REG1A 3.70 ng/mL
Procedure, shortened: as §1

[13] = molecular target: T1, recombinant human regenerating …; experiment: sandwich ELISA; capture 12F12A10; REG1A 0 ng/mL (blank)
Procedure, shortened: as §1

[14] = molecular target: T1, recombinant human regenerating …; experiment: sandwich ELISA; capture 12F12A10; REG1A 33.33 ng/mL
Procedure, shortened: as §1

[15] = molecular target: T1, recombinant human regenerating …; experiment: sandwich ELISA; capture 25F3C4; REG1A 33.33 ng/mL
Procedure, shortened: as §1

[16] = molecular target: T1, recombinant human regenerating …; experiment: sandwich ELISA; capture 21B11D2; REG1A 11.11 ng/mL
Procedure, shortened: as §1

[17] = molecular target: T1, recombinant human regenerating …; experiment: sandwich ELISA; capture 21B11D2; REG1A 100.00 ng/mL
Procedure, shortened: as §1

[18] = molecular target: T1, recombinant human regenerating …; experiment: sandwich ELISA; capture 11D11B11; REG1A 0 ng/mL (blank)
Procedure, shortened: as §1

[19] = molecular target: T1, recombinant human regenerating …; experiment: sandwich ELISA; capture 12F12A10; REG1A 1.23 ng/mL
Procedure, shortened: as §1

[20] = molecular target: T1, recombinant human regenerating …; experiment: sandwich ELISA; capture 25F3C4; REG1A 1.23 ng/mL
Procedure, shortened: as §1

[21] = molecular target: T1, recombinant human regenerating …; experiment: sandwich ELISA; capture 25F3C4; REG1A 3.70 ng/mL
Procedure, shortened: as §1

[22] = molecular target: T1, recombinant human regenerating …; experiment: sandwich ELISA; capture 21B11D2; REG1A 3.70 ng/mL
Procedure, shortened: as §1

[23] = molecular target: T1, recombinant human regenerating …; experiment: sandwich ELISA; capture 4H8F1; REG1A 33.33 ng/mL
Procedure, shortened: as §1

[24] = molecular target: T1, recombinant human regenerating …; experiment: sandwich ELISA; capture 4H8F1; REG1A 11.11 ng/mL
Procedure, shortened: as §1

[25] = molecular target: T1, recombinant human regenerating …; experiment: sandwich ELISA; capture 11D11B11; REG1A 3.70 ng/mL
Procedure, shortened: as §1

[26] = molecular target: T1, recombinant human regenerating …; experiment: sandwich ELISA; capture 21B11D2; REG1A 0 ng/mL (blank)
Procedure, shortened: as §1

[27] = molecular target: T1, recombinant human regenerating …; experiment: sandwich ELISA; capture 11D11B11; REG1A 100.00 ng/mL
Procedure, shortened: as §1

[28] = molecular target: T1, recombinant human regenerating …; experiment: sandwich ELISA; capture 4H8F1; REG1A 0 ng/mL (blank)
Procedure, shortened: as §1

[29] = molecular target: T1, recombinant human regenerating …; experiment: sandwich ELISA; capture 4H8F1; REG1A 3.70 ng/mL
Procedure, shortened: as §1

[30] = molecular target: T1, recombinant human regenerating …; experiment: sandwich ELISA; capture 4H8F1; REG1A 100.00 ng/mL
Procedure, shortened: as §1

OD value [1]: 3.35 OD
OD value [2]: 0.066 OD
OD value [3]: 2.89 OD
OD value [4]: 0.063 OD
OD value [5]: 0.071 OD
OD value [6]: 0.07 OD
OD value [7]: 0.069 OD
OD value [8]: 0.068 OD
OD value [9]: 0.073 OD
OD value [10]: 0.072 OD
OD value [11]: 0.066 OD
OD value [12]: 2.38 OD
OD value [13]: 0.068 OD
OD value [14]: 3.21 OD
OD value [15]: 0.071 OD
OD value [16]: 0.069 OD
OD value [17]: 0.068 OD
OD value [18]: 0.068 OD
OD value [19]: 1.18 OD
OD value [20]: 0.066 OD
OD value [21]: 0.068 OD
OD value [22]: 0.069 OD
OD value [23]: 0.073 OD
OD value [24]: 0.07 OD
OD value [25]: 0.06 OD
OD value [26]: 0.073 OD
OD value [27]: 0.065 OD
OD value [28]: 0.069 OD
OD value [29]: 0.068 OD
OD value [30]: 0.08 OD
B1: antibody 21B11D2 (antibody, mouse IgG2b, kappa, V domains shown)
VH: QAQLQQSGAELVRPGASVTLSCKASGYIFTDYEMHWVKQTPVHGLEWIGAIDPETGGTAYNQKFKGKARLTADKSSSTAYMELRSLTSEDSAVYYCTIYYTNHFDYWGQGTTLTVSS
VL: DVVMTQTPLSLPVSLGDQASISCRSSQSLVYSNGDTYLYWYLQKPGQSPKLLIYKVSNRFSGVPDRFSGSGSGTDFTLKISRVEAEDLGVYFCSQSTHVPLTFGAGTKLELKR
notes: Mouse monoclonal from hybridoma, stated mouse IgG1/Kappa; Used unlabelled as capture and biotin-labelled as detection antibody; also called 21B11D2-biotin
